Assay results taken from the nanobody polyreactivity screen of Harvey et al. (2022).

Experiment: yeast display, Sf9 membrane polyspecificity reagent, FACS + sequencing; frameworks hold sequencing errors
Summary of the method: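 In a synthetic yeast display library (Saccharomyces cerevisiae BJ5465), nanobody expression was induced with galactose for 36–48 hours. FACS gates were set low and high (top ~1%) using anti-HA fluorescence for expression and streptavidin fluorescence for binding of the Sf9 membrane reagent. Each polyreactivity label is drawn from the gate of origin.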

Row | Sequence | polyreactivity (PSR sort gate)
1 | QVQLVESGGGLVQAGGSLRLSCAASGRTFYRNAMGWYRQAPGKERELVAAITWSGVSTYYADSVKGRFTISRDNAKNTVYLQMNSLKPEDTAVYYCARGRVLRNGHYFQLRNYDYWGQGTQVTVSS | high polyreactivity
2 | QVQLVESGGGLVQAGGSLRLSCAASGRTFYRNAMGWYRQAPGKERELVAGITRGGRTYYADSVKGRFTISRDNAKNTVYLQMNSLKPEDTAVYYCAKGRSWQIYYKGGIKGGYWGQGTQVTVSS | low polyreactivity
3 | QVQLVESGGGLVQAGGSLRLSCAASGRTFYRNDMGWYRQEPGKEREFVAAITSSGGTTYADSVKGRFTISRDNAKNTVYLQMNSLKPEDTAVYYCNTVLYPYWQWDYEFDYWGQGTQVTVSS | low polyreactivity
4 | QVQLVESGGGLVQAGGSLRLSCAASGRTFYRNDRGWYRQAPGKERELVAAITSSGGTTYADSVKGRFTISRDNAKNTVYLQMNSLKPEDTAVYYCNTVLYAYWQWDYEFDYWGQGTQVTVSS | low polyreactivity
5 | QVQLVESGGGLVQAGGSLRLSCAASGRTFYRSVMGWYRQAPGKERELVAAITPGGSTYADSVKGRFTISRDNAKKTVSLQMNSLKPEDTAVNYCNKRKASSSGYNYWGQVTQVTVSS | low polyreactivity
6 | QVQLVESGGGLVQAGGSLRLSCAASGRTFYRYAMGWSRQAPGKERELVATISGSGGSTYYADSVKGRFTISRDNAKNTVYLQMNSLKPEDTAVYYCNAVWRFPIGRTAPRYDYWGQGTQVTVSS | high polyreactivity
7 | QVQLVESGGGLVQAGGSLRLSCAASGRTFYRYAMGWYRQAPGKEREFVAAISNGGSNTRYADSVKGRFTISRDNATNTVYLQMNSLKPEDTAVYYCAASAYQHYNWGQGTQVTVSS | high polyreactivity
8 | QVQLVESGGGLVQAGGSLRLSCAASGRTFYRYAMGWYRQAPGKERELVAAISSNGGSTYYADSVKGRFTISRDNAKNTVYLQMNSLKPEDTAVYYCYYYYSRLFDYWGQGTQVTVSS | high polyreactivity
9 | QVQLVESGGGLVQAGGSLRLSCAASGRTFYRYAMGWYRQAPGKERELVAAITGGGGSTYYADSVKGRFTISRDNAKNTVYLQMNSLKPEDTAVYYCNRRSYGFISYNFWGQGTQVTVSS | high polyreactivity
10 | QVQLVESGGGLVQAGGSLRLSCAASGRTFYRYAMGWYRQAPGKERELVASINRGGSTNYADSVKGRFTISRDNAKNTVFLQMNCLKPEDTAVYYCACYCYCYWGQGTQVTVSS | low polyreactivity
11 | QVQLVESGGGLVQAGGSLRLSCAASGRTFYRYAMGWYRQAPGKERELVATISRSGGSTYYADSVKGRFTISRDNAKYTVYLQMKSLNPEDTAVYYCNAEGYPWGFYTYDYWGQGTQVTVSS | low polyreactivity
12 | QVQLVESGGGLVQAGGSLRLSCAASGRTFYRYAMGWYRQAPGKERELVAVITSGSRTKYADSVKGRFTISRDNAKNTVYLQMNSLKPEDTAVYYCAARGLALEGKSSGEYWGQGTQVTVSS | high polyreactivity
13 | QVQLVESGGGLVQAGGSLRLSCAASGRTFYRYAMGWYRQAPGKERELVAVITSGSRTKYADSVKGRFTISRDNAKNTVYLQMNSLKPEDTAVYYCAARVLALEGKSSGEYWGQGTQVTVSS | high polyreactivity
14 | QVQLVESGGGLVQAGGSLRLSCAASGRTFYRYSMGWYRQAPGKERELVAGISTRGGSTYYADSVKGRFTISRDNAKNTVYLQMNSLKPEDTAVYYCAAAPLAFRYDYWGQGTHVTVSS | high polyreactivity
15 | QVQLVESGGGLVQAGGSLRLSCAASGRTFYRYVMGWYRQAPGKERELVAAISKSDGSTYYADSVKGRFTISRDNAKNSVYLQMNSLKPEDTAVYYCNARLSWSAFGYWGQGTQVTVSS | high polyreactivity
16 | QVQLVESGGGLVQAGGSLRLSCAASGRTFYSNAMGWYRPAPGKERELVAAITFGGGSTYYADSVKGRFTISRDNAKNTVYVQMNSLKPEDTAVYYCAAEGYKYRFYYWGQGTQVTVSS | low polyreactivity
17 | QVQLVESGGGLVQAGGSLRLSCAASGRTFYSNAMGWYRQAPGKETELVAAISNRGGSTYYADSLKGRFTISRDNAKNTVYLQMNSLKPEYTAVYYCARYPTKYGYWGQGTQVTVSS | high polyreactivity
18 | QVQLVESGGGLVQAGGSLRLSCAASGRTFYSNARGWSRQAPGKERELVARISNGGSTHYADSVKGRFTISRDNAKNTVYLQMNSLKPEDTAVYYCNTDRGHFYTYPYTYYRLGYWGQGTQVTVSS | low polyreactivity
19 | QVQLVESGGGLVQAGGSLRLSCAASGRTFYSYAMGWYRQAPGKERELVAAISKRGTSTYYADSVKGRFTISRDNAKNTVYLQMNSLKPEDTAVYYCAAAYRGREVEYNCWGQGTQVTVSS | high polyreactivity
20 | QVQLVESGGGLVQAGGSLRLSCAASGRTFYSYAMGWYRQAPGKERELVAAISRAGGTYYADSVKGRFTISRDNAKNTVYLQMNSLKPEDTAVYYCAARQAVYGLRSDFYYWGQGTQVTVSS | high polyreactivity
21 | QVQLVESGGGLVQAGGSLRLSCAASGRTFYSYAMGWYRQAPGKERELVAAISSSSGRTYYADSVKGRFTISRDNAKNTVYLQMNSLKPEDTAVYYCNRAGGYRTTFYSWGQGTQVTVSS | high polyreactivity
22 | QVQLVESGGGLVQAGGSLRLSCAASGRTFYSYAMGWYRQAPGKERELVASITSTGSTYYADSVKGRFTISRDNAKNTVYLQMNSLKPEDTAVYYCAARRQPRYSQRSTYYYWGQGTQVTVSS | high polyreactivity

Row | Sequence | polyreactivity (PSR sort gate)
23 | QVQLVESGGGLVQAGGSLRLSCAASGRTFYSYAMGWYRQAPGKEWVLVAAISKRGTSTYYADSVKGRFTISRDNAKNTVYLQMNTLKPEDTAVYYCAAAYRGREVEYTSWGQGTQVTVSS | high polyreactivity
24 | QVQLVESGGGLVQAGGSLRLSCAASGRTFYSYAMVWYRQAPGKERELVAAISAGGSTYYADSVKGRFTSSRDNAMTTLYLQMNSLKPEDTAVYYCADTYSYYYVRYHYWGQGTQVTVSS | high polyreactivity
25 | QVQLVESGGGLVQAGGSLRLSCAASGRTFYSYVMGWYRQSPGKERELVAAINNSGGGTYYADSVKGRFTISRDNAKNTVYLQMNSLKPEDTAVYYCNAVGGYWFDYWGQGTQVTVSS | high polyreactivity
26 | QVQLVESGGGLVQAGGSLRLSCAASGRTFYTNAMGWYRQAPGKERELVAAIDGGGTTYYADSVKGRFTISRDNAKNTVYLQMNSLKPEDTAVYYCNADVFGLKQTAFDYWGQGTQVTVSS | low polyreactivity
27 | QVQLVESGGGLVQAGGSLRLSCAASGRTFYTNAMGWYRQAPGKERELVAVISRGGTTYYADSVKGRFTISRDNAKYTVYFQMNSLKPEDTAVYYCAKQRPSGDSSSQLGSWGQGTQVTVSS | low polyreactivity
28 | QVQLVESGGGLVQAGGSLRLSCAASGRTFYTVYAMGWYRQAPGKERELVAAITKDGTTTYYADSVKGRFTISRDNAKNTVYLQMNSLKPEDTAVYYCNADVCQPWGGGEYNYWGQGTQVTVSS | high polyreactivity
29 | QVQLVESGGGLVQAGGSLRLSCAASGRTFYVNAMGWYRQAPGKEREFVATITRTGGDTYYADSVKGRFTISRDNAKNTVYLQMNSHKPEDTAVFYCNAEGYTVKYWYSRYDYWGQGTQVTVSS | high polyreactivity
30 | QVQLVESGGGLVQAGGSLRLSCAASGRTFYVNAMGWYRQAPGKERELVAAIRYSDGRTYYADSVKGRFTISRDNAKNTVYLQMNSLKPEDTAVYYCAVGSRSWPYDYWGQGTQVTVSS | high polyreactivity
31 | QVQLVESGGGLVQAGGSLRLSCAASGRTFYVYAMGWYRHAPGKERELVASIRRSGGITYYADSVKGRFTISRDNAKNTVYLQMNSLKPEDTAVYYCNARRGPGRREYDYWGQGTQVTLSS | high polyreactivity
32 | QVQLVESGGGLVQAGGSLRLSCAASGRTFYVYAMGWYRQAPGKERELVAAISQDDGGTYYADSVKGRFTISRDNAKNTVYLQMNSLKPEDTAVYYCAAKEWRYGYDYGYWGQGTQVTLSS | low polyreactivity
33 | QVQLVESGGGLVQAGGSLRLSCAASGRTFYVYAMGWYRQAPGKERELVASISWIGDDTYYADSVKGRFTISRDNAKNTVYLQMNSLKPEDTAVYYCAVLVLGDYGYEYWGQGTQVTVSS | high polyreactivity
34 | QVQLVESGGGLVQAGGSLRLSCAASGRTFYVYDMGWYRQAPGKERELVAAISTNYADSVKGRFTISRDNAKNTVYLQMNSLNPEDTAVYYCAADDIHYVIHAYYSSGVDYWGQGTQVTVSS | low polyreactivity
35 | QVQLVESGGGLVQAGGSLRLSCAASGRTFYVYDMGWYRQAPRKEREFVATITARGGSTSYADSVKGRFTISRDNAKNTVYLQMNILKPEDTAVYYCNADIHVYPTRTRYYYWGQGTQVTVSS | low polyreactivity
36 | QVQLVESGGGLVQAGGSLRLSCAASGRTFYVYTMGWYRQAPGKERELVAAITTGGSTNYADSVKGRFTISRDNAKNTVYLQMNSLKPEDTAVYYCAARVSTVFKRYYYWGQGTQVTVSS | high polyreactivity
37 | QVQLVESGGGLVQAGGSLRLSCAASGRTFYVYTMGWYRQAPGKERELVAANTSGGSTNYADSVKGRFTISRDNAKNTVYLQMNSLKPEDTAVYYCAARVSTVFKRYYYWGQGTQVTVSS | high polyreactivity
38 | QVQLVESGGGLVQAGGSLRLSCAASGRTFYWYAMGWYRQAPGKERELVAAISSGGSTYYADSVKGRFTISRDNAKNTVYLQMNSLKPEDTAVYYCAAVTPSGAHRSAYHPISDYWGQGTQVTVSS | low polyreactivity
39 | QVQLVESGGGLVQAGGSLRLSCAASGRTFYYAMGWYRQAPGKERYADSVKGRVTISRDNAKNTVYLQMNSLKPEETAVYYCAAKVPEPPSLDESDYWGQGTQVTVSS | low polyreactivity
40 | QVQLVESGGGLVQAGGSLRLSCAASGRTFYYNAKGWYRQAPGKERELVARITSSGGSTYYADSVKGRFTISRDTSKNTVFLQMNSLKPEDTAVYYCAAGRSRYLWFGRDFDYWGQGTQVTVSS | low polyreactivity
41 | QVQLVESGGGLVQAGGSLRLSCAASGRTFYYNGMGWYRQAPGKERELVATITNGGSTNYADSVKGRFTISRDNAKITVYLQMNSLKPEETAVYYCAKTLASDCYDYWGQGTQVTVSS | low polyreactivity
42 | QVQLVESGGGLVQAGGSLRLSCAASGRTFYYYAMGWYRQAPGKERELVAAISRSGGITYYADSVKGRFTISRDNAKNTVYLQMNSLKPEDTAVYYCAADAWFSLRYAPRSYAYGYWGQGTQVTVSS | low polyreactivity
43 | QVQLVESGGGLVQAGGSLRLSCAASGRTFYYYAMGWYRQAPGKERELVAAITGSGANTYYADSVKGRFTISRDNAKNTVYLQMKSLKPEDTAVYYCNKYRTLRNGWGSGYYYWGQGTQVTVSS | high polyreactivity
